Measured values: paper doi:10.1101/2020.11.11.377994v1

Tests used:
purified protein [1] = substrate: CC(C)(COP(=O)(O)OP(=O)(O)OC[C@H]1O[C@@H](n2cnc3c(N)ncnc32)[C@H](O)[C@@H]1O)[C@@H](O)C(=O)NCCC(=O)NCCS; experiment: purified protein; conditions: 200 uM ATP, 10 mM MgCl2, pH 7.4, 37 °C
purified protein [2] = substrate: Nc1ncnc2c1ncn2[C@@H]1O[C@H](COP(=O)(O)OP(=O)(O)OP(=O)(O)O)[C@@H](O)[C@H]1O; experiment: purified protein; conditions: 200 uM dCoA, 10 mM MgCl2, pH 7.4, 37 °C, phosphotransferase

B1: DPCK (DPCK-WT), putative dephospho-CoA kinase (Aquifex aeolicus VF5) (protein)
chain: MKRIGLTGNIGCGKSTVAQMFRELGAYVLDADKLIHSFYRKGHPVYEEVVKTFGKGILDEEGNIDRKKLADIVFKDEEKLRKLEEITHRALYKEIEKITKNLSEDTLFILEASLLVEKGTYKNYDKLIVVYAPYEVCKERAIKRGMSEEDFERRWKKQMPIEEKVKYADYVIDNSGSIEETYKQVKKVYEELTRDP
With B1 the Km (purified protein [1]) was 24.3 ± 1.7 µM, the kcat (purified protein [1]) was 0.817 ± 0.0867 s⁻¹ and the Km (purified protein [2]) was 12.7 ± 0.3 µM. It also gave a kcat (purified protein [2]) of 0.73 ± 0.025 s⁻¹.
